According to US20110008258A1, “METHODS RELATING TO BREATHING DISORDERS” (SAMSARA MEDICIN AB, priority 2007, published 2011):

Columns and labels:
[1] = test system: IL-1β-induced respiratory depression; conditions: cited from earlier work
mPGES-1 enzyme = biological target: T1, mPGES-1 enzyme (Homo sapiens, UniProt O14684); conditions: reported in refs 75-77; read-out: IC50, inhibition of mPGES-1; cited from earlier work
T1 sequence (O14684 1-152): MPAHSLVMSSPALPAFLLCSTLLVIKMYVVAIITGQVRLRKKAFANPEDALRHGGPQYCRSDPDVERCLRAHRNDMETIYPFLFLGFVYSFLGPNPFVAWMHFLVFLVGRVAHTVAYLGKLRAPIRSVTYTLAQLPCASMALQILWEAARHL

mPGES-1 = mPGES-1 activity in brain membrane fraction after IL-1β; assay type: in vivo, mice
Experimental: Newborn mouse brains (n=33) were homogenized in 0.1M KPi (potassium inorganic phosphate) buffer containing 0.25M sucrose, 1× complete protease inhibitor (Roche Diagnostics) and 1 mM reduced glutathione followed by sonication. Membrane fraction was isolated by subcellular fractionation. mPGES-1 activity was measured in the membrane fraction as described previously (52, the disclosure of which is expressly incorporated herein by reference).

EP3R^−/− mice = assay: Whole-body flow plethysmography after i.p. IL-1β, EP3R−/− mice; assay type: in vivo
Experimental: (§1) A Plexiglas chamber (35 ml) was connected to a highly sensitive direct airflow sensor (0-200 ml/min; TRN3100, Kent Scientific Corporation, Litchfield, Conn., USA). The flow signal was amplified by a four-channel amplifier (P/N 770 S/N 5; SENSElab, Somedic Sales, Hörby, Sweden), converted to digital signal, and recorded at 100 Hz by an online computer using DasyLab software (Datalog GmbH & Co. KG, Mönchengladbach, Germany). Respiratory frequency (fR, breaths/min), tidal volume (VT, μl/breath), and minute ventilation (VE, μl/min) were calculated. […] As described previously, the chamber was calibrated by repeatedly injecting standardized volumes of air (5-200 μl) with preset precision syringes (Hamilton Bonaduz AG, Switzerland) (6).
(§2) Each mouse received an intraperitoneal injection (0.01 ml/g) of IL-1β (10 μg/kg) or vehicle. At 70 min, the mouse was placed unrestrained into the plethysmograph chamber. Respiration was assessed during 4 min of normoxia (21% O2) followed by 1 min of hyperoxia (100% O2). After a 5 min recovery period in normoxia, the respiratory response to anoxia (100% N2) was examined. Finally, 100% O2 was administered for 8 min, and the ability to autoresuscitate was evaluated. Skin temperature was recorded at baseline, at 70 min, and after removal from the chamber. Rectal temperature was not measured as rectal probe placement may alter respiratory behavior. The anogenital distance was measured to approximate gender.
Periods of calm respiration without movement artefact were selected for analysis. Mean fR, VT, and VE values during normoxia and hyperoxia as well as the anoxic response (i.e., hyperpnea, primary apnea, gasping, secondary apnea, and autoresuscitation) were analyzed as described previously (6, the disclosure of which is expressly incorporated herein by reference). Survival was recorded for all animals. Apnea was defined as cessation of breathing for three respiratory cycles. Regularity of breathing was quantified using the coefficient of variation (C.V.) (i.e., SD divided by mean of breath-by-breath interval during 60 periods). […]

mPGES-1^−/− mice = assay: Whole-body flow plethysmography after i.p. IL-1β, mPGES-1−/− mice; assay type: in vivo
Experimental: as §1, §2
(§3) Periods of calm respiration without movement artefact were selected for analysis. Mean fR, VT, and VE values during normoxia and hyperoxia as well as the anoxic response (i.e., hyperpnea, primary apnea, gasping, secondary apnea, and autoresuscitation) were analyzed as described previously (6, the disclosure of which is expressly incorporated herein by reference). Survival was recorded for all animals. Apnea was defined as cessation of breathing for three respiratory cycles. Regularity of breathing was quantified using the coefficient of variation (C.V.) (i.e., SD divided by mean of breath-by-breath interval during 60 periods).
(§4) As there is a variable response to anoxia based upon age (53), we attempted to perform all recordings at age P9; however, in an effort to minimize confounding age-related effects, weight was used as a correlate of age and only animals with weights within 1 SD of the population mean weight were included in the anoxia and survival analyses (6).

mPGES-1^+/+ mice = assay: Whole-body flow plethysmography after i.p. IL-1β, mPGES-1+/+ mice; assay type: in vivo
Experimental: as §1, §2, §3, §4

[2] = EP3R wildtype mice, 90 min after IL-1β
[3] = 9 d-old mPGES-1−/− mice, IL-1β i.p., hyperoxia (100% O2)
[4] = 9 d-old mPGES-1−/− mice, IL-1β i.p., normoxia
[5] = mPGES-1−/− mice, anoxia at 80 min after IL-1β
[6] = 9 d-old mPGES-1+/+ mice, IL-1β i.p., hyperoxia (100% O2)
[7] = 9 d-old mPGES-1+/+ mice, IL-1β i.p., normoxia
[8] = mPGES-1+/+ mice, anoxia at 80 min after IL-1β

COc1ccc2c(c1)c(CC(=O)O)c(C)n2C(=O)c1ccc(Cl)cc1 [indomethacin]
effect on respiratory depression induced by IL-1β [1]: attenuates the respiratory depression
effect on adverse effects of IL-1β on hypoxic gasping and anoxic survival ([1]; neonatal rats): attenuates the adverse effects

CCCCC/C=C\C\C=C/C=C/C=C/[C@@H](SC[C@H](NC(=O)CC[C@H](N)C(=O)O)C(=O)NCC(=O)O)[C@@H](O)CCCC(=O)O [leukotriene C4]
IC50 (mPGES-1 enzyme): 5 µM

CSc1ccc(/C=C2/C(C)=C(CC(=O)O)c3cc(F)ccc32)cc1 [sulindac sulfide]
IC50 (mPGES-1 enzyme): 80 µM

B1: IL-1β: Recombinant mouse interleukin-1β (Nordic Biosite AB), pro-inflammatory cytokine given i.p. to neonatal mice (protein, UniProt P10749 118-269, looked up)
Interleukin-1 beta: VPIRQLHYRLRDEQQKSLVLSDPYELKALHLNGQNINQQVIFSMSFVQGEPSNDKIPVALGLKGKNLYLSCVMKDGTPTLQLESVDPKQYPKKKMEKRFVFNKIEVKSKVEFESAEFPNWYISTSQAEHKPVFLGNNSGQDIIDFTMESVSS
mPGES-1 activity (PGE2), brainstem (mPGES-1; [2]): 1111±49 pmol/min/mg protein
mPGES-1 activity (PGE2), cortex (mPGES-1; [2]): 710±44 pmol/min/mg protein
brainstem mPGES-1 activity compared to control mice (mPGES-1; IL-1β-treated mice exposed to anoxia (100% N2, 5 min)): four-times higher activity
cortex mPGES-1 activity (mPGES-1; between 90 and 180 min after IL-1β): remained unchanged
mPGES-1 activity (mPGES-1; mice with genetic deletion of mPGES-1 gene, IL-1β and anoxia): negligible activity
brainstem mPGES-1 activity compared to saline-treated mice (mPGES-1; wildtype mice, 90 min after IL-1β): approximately two-fold higher activity
increase in brainstem mPGES-1 activity (mPGES-1; wildtype mice, 180 min after IL-1β): four-fold increase
hypoxic ventilatory response (EP3R^−/− mice; EP3R−/− mice, IL-1β i.p.): unable to affect the hypoxic ventilatory response
ventilation during normoxia or hyperoxia (EP3R^−/− mice; EP3R−/− mice, IL-1β i.p.): did not alter ventilation
anoxic survival (EP3R^−/− mice; mice lacking EP3R, 5 min anoxia at 80 min after IL-1β i.p.): did not decrease survival
VE, hyperoxia (mPGES-1^−/− mice; [3]): 795 ± 67 µL/min/g
VT, hyperoxia (mPGES-1^−/− mice; [3]): 3.9 ± 0.3 μl/br/g
fR, hyperoxia (mPGES-1^−/− mice; [3]): 206 ± 11 breaths/min
VE, normoxia (mPGES-1^−/− mice; [4]): 660 ± 41 µL/min/g
VT, normoxia (mPGES-1^−/− mice; [4]): 2.7 ± 0.1 μl/br/g
fR, normoxia (mPGES-1^−/− mice; [4]): 245 ± 7 breaths/min
Hyperpnea fR (mPGES-1^−/− mice; mPGES-1−/− mice, anoxia (100% N2) at 80 min after IL-1β): 338 ± 24 breaths/min
Gasping Response Duration (mPGES-1^−/− mice; [5]): 146 ± 23
Gasping Response Gasp # (mPGES-1^−/− mice; [5]): 36 ± 3
Gasping Response Gasp fR (mPGES-1^−/− mice; [5]): 18 ± 2
Hyperpnea Duration (mPGES-1^−/− mice; [5]): 57 ± 2
anoxic survival (mPGES-1^−/− mice; mice lacking mPGES-1, 5 min anoxia at 80 min after IL-1β i.p.): did not decrease survival
fR, normoxia (mPGES-1^+/+ mice; 9 d-old mPGES-1+/+ mice, IL-1β 10 μg/kg i.p., normoxia, mean±SEM): 224 ± 5 breaths/min
VE, hyperoxia (mPGES-1^+/+ mice; [6]): 628 ± 43 µL/min/g
VT, hyperoxia (mPGES-1^+/+ mice; [6]): 3.9 ± 0.2 μl/br/g
fR, hyperoxia (mPGES-1^+/+ mice; [6]): 155 ± 7 breaths/min
VE, normoxia (mPGES-1^+/+ mice; [7]): 730 ± 38 µL/min/g
VT, normoxia (mPGES-1^+/+ mice; [7]): 3.2 ± 0.2 μl/br/g
anoxic survival (mPGES-1^+/+ mice; mPGES-1+/+ mice, 5 min anoxia at 80 min after IL-1β i.p.): significantly reduced anoxic survival
Hyperpnea fR (mPGES-1^+/+ mice; mPGES-1+/+ mice, anoxia (100% N2) at 80 min after IL-1β): 390 ± 11 breaths/min
Gasping Response Duration (mPGES-1^+/+ mice; [8]): 82 ± 7
Gasping Response Gasp # (mPGES-1^+/+ mice; [8]): 30 ± 2
Gasping Response Gasp fR (mPGES-1^+/+ mice; [8]): 23 ± 1
Hyperpnea Duration (mPGES-1^+/+ mice; [8]): 61 ± 2
